Data from patent publication US6106844A, “Immunomodulatory peptides of vespid antigen 5” (The Rockfeller University, priority 1998, dated 2000).

Experiments:
r-Dol m 5.02 = molecular target: T1, r-Dol m 5.02 (Dolichovespula maculata, UniProt P10737); test: Antibody response by direct ELISA of mice immunized with recombinant white faced hornet Ag5, wells coated with r-Dol m 5.02; format: in vivo; conditions: for Half maximal Ab titer r-Dol m 5.02: week five sera after three i.p. immunizations with rDol m 5.02 and alum; for antibody responder status: alum as adjuvant
T1 construct: made in house
T1 sequence (P10737 11-215): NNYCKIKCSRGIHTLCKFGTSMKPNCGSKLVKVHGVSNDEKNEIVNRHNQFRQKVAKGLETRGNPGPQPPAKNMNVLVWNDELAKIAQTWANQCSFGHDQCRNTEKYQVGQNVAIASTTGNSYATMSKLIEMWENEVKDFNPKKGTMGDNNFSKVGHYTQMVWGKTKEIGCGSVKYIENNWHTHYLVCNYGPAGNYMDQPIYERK
Protocol: Antibody response in mice of different haplotypes to recombinant hornet Ag5. Five strains of mice were immunized with recombinant (r) white faced hornet Ag5 and alum as adjuvant. […] The antibody titers (the reciprocal of the dilution yielding 50% of maximum signal extrapolated from ELISA curves in wells coated with r-Dol m 5.02 or n-Dol m 5.01) of these sera for n-(natural) and r-Ag5 are given in Table 3.
*Sera are from week five bleeding after three intraperitoneal
immunizations with 0.2 ml of 10 μg/ml rDol m 5.02 and alum (5 μg/ml
in 0.05 m sodium phosphate buffer, pH 6.2, on weeks 0, 2, and 4.

[1] = system: Ag5 specific spleen cells from BALB/c mice; test: In vitro proliferation assay, spleen cells of Ag5-immunized BALB/c mice; format: cell-based; conditions: spleen cells from mice immunized with rAg5; blank 3970 cpm
Protocol: (§1) FIG. 4. Stimulation index profile of BALB/c mice spleens after 4 immunizations with natural (n)-Ag5. In vitro proliferation assays were performed with peptides at three concentrations: 1×10^-5 M (open bar), 1.25×10^-6 M ("uphill" hatch), and 1.56×10^-7 M ("downhill" hatch). The corresponding concentrations of recombinant antigen 5 control were 1.0×10^-6 M, 1.25×10^-7, and 1.56×10^-8 M. The blank was 2200 cpm.
as §1, with “5.” for “4.”, “recombinant (r)-Ag5.” for “natural (n)-Ag5.”, “Antigen” for “antigen”, “5” for “5 control”, “4700” for “2200”
FIG. 6. […] In vitro proliferation assays were performed with peptides at three concentrations: 1×10^-5 M (open bar), 1.25×10^-6 M ("uphill" hatch), and 1.56×10^-7 M ("downhill" hatch). The corresponding concentrations of recombinant Antigen 5 were 1.0×10^-6 M, 1.25×10^-7, and 1.56×10^-8 M. […]
The peptides of the invention can be tested in a proliferation assay for T cell responses. Generally, lymphocytes from a sensitized host are obtained. The host can be a mouse that has been immunized with a vespid venom antigen 5, or with a crossreactive protein, such as testes specific protein. Using techniques that are well known in the art, T lymphocyte response to the peptide can be measured in vitro. In a specific embodiment, infra, T cell responses are detected by measuring incorporation of ^3 H-thymidine, which increases with DNA synthesis associated with proliferation. Cell proliferation can also be detected using an MTT assay [Mossman, J. Immunol. Methods, 65:55-63,(1983); Niks and Otto, J. Immunol. Methods, 130:140-151 (1990)]. Alternatively, lymphokine production assays can be practiced according to the present invention. In one embodiment, lymphokine production can be assayed using immunological or co-stimulation assays [see, e.g., Fehlner et al., J. Immunol., 146:799 (1991)] or using the ELISPOT technique [Czerkinsky, et al., J. Immunol. Methods, 110:29 (1988)]. Alternatively, mRNA for lymphokines can be detected, e.g., by amplification [see Brenner, et al., Biotechniques, 7:1096 (1989)] or in situ hybridization [see, e.g., Kasaian and Biron, J. Immunol., 142:1287 (1989)]. Of particular interest are those individuals whose T cells produce lymphokines associated with IgE isotype switch events, e.g., IL-4 and IL-5 [Purkeson and Isakson, J. Exp. Med., 175:973-982 (1992)]. Also of interest are the peptide fragments of the vespid venom antigen 5 that contain epitopes recognized by T cells involved in IgE switch events. […]

[2] = system: r-Ag5 specific spleen cells from C3H/He mice; test: In vitro proliferation assay, spleen cells of r-Ag5-immunized C3H/He mice; format: cell-based; conditions: spleen cells from mice immunized 5 times with rAg5; blank 3130 cpm
Protocol: FIG. 13. Stimulation index profile of C3H/He mice spleens after 5 immunizations with r-Ag5. In vitro proliferation assays were performed with peptides at three concentrations: 1×10^-5 M (open bar), 1.25×10^-6 M ("uphill" hatch), and 1.56×10^-7 M ("downhill" hatch). The corresponding concentrations of recombinant Antigen 5 were 1.0×10^-6 M, 1.25×10^-7, and 1.56×10^-8 M. The blank was 3130 cpm.
The peptides of the invention can be tested in a proliferation assay for T cell responses. Generally, lymphocytes from a sensitized host are obtained. The host can be a mouse that has been immunized with a vespid venom antigen 5, or with a crossreactive protein, such as testes specific protein. Using techniques that are well known in the art, T lymphocyte response to the peptide can be measured in vitro. In a specific embodiment, infra, T cell responses are detected by measuring incorporation of ^3 H-thymidine, which increases with DNA synthesis associated with proliferation. Cell proliferation can also be detected using an MTT assay [Mossman, J. Immunol. Methods, 65:55-63,(1983); Niks and Otto, J. Immunol. Methods, 130:140-151 (1990)]. […] Alternatively, mRNA for lymphokines can be detected, e.g., by amplification [see Brenner, et al., Biotechniques, 7:1096 (1989)] or in situ hybridization [see, e.g., Kasaian and Biron, J. Immunol., 142:1287 (1989)]. […]

B1: r-Ag5: recombinant white faced hornet (Dolichovespula maculata) antigen 5 form 2, Dol m 5.02 (protein)
chain: T1 sequence (P10737 11-215)
Half maximal Ab titer r-Dol m 5.02 (r-Dol m 5.02; ASW/Sn mice (haplotype s)): 1 × 10^5
Half maximal Ab titer r-Dol m 5.02 (r-Dol m 5.02; BALB/c byj mice (haplotype d)): 8 × 10^4
antibody responder status (r-Dol m 5.02; BALB/v byj, ASW/Sn, C3H/He, and P/J mice): high antibody responders
Half maximal Ab titer r-Dol m 5.02 (r-Dol m 5.02; C3H/He mice (haplotype k)): 6 × 10^3
Half maximal Ab titer r-Dol m 5.02 (r-Dol m 5.02; C57B1/6 mice (haplotype b)): 1 × 10^2
antibody responder status (r-Dol m 5.02; C57B1/6 mice): poor antibody responder
Half maximal Ab titer r-Dol m 5.02 (r-Dol m 5.02; P/J mice (haplotype p)): 2 × 10^4
Stimulation Index BALB/c [1]: 20.9
Stimulation Index C3H/He [2]: 12.3
